For assay [1], the target named is glycomyoglobin with GalNAc-α-threonine at position 4 (myoglobin 4TAG mutant, C-terminal 6xHis tag) (UniProt P02185). Kind of assay: enzyme-linked lectin-binding assay (ELLA); 600 ng myoglobin on plate, biotinylated lectin 10 µg/mL, streptavidin-AP, pNPP, 405 nm; reference is an equivalent concentration of tyrosine-myoglobin.
Assay [2] addresses glycomyoglobin with β-GlcNAc-serine at position 4 (Gly4TAG mutant myoglobin, C-terminal His6 tag) (UniProt P02185). Nature of the assay: ELISA-like lectin binding assay; 200 ng myoglobin immobilized, biotinylated BSII, streptavidin-alkaline phosphatase, pNPP, A405. A general note: An ELISA detects its analyte on a solid surface through an enzyme-linked reagent.

A value given as a limit tells only on which side of the number the result lay.

Sequence of glycomyoglobin with GalNAc-α-threonine at position 4 (myoglobin 4TAG mutant, C-terminal 6xHis tag) (P02185 other isoform, or with tags, fused parts or gaps mutant): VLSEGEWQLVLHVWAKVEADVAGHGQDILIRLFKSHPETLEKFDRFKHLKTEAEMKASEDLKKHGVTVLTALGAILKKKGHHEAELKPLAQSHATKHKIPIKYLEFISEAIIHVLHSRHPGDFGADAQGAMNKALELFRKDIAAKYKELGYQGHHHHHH
Sequence of glycomyoglobin with β-GlcNAc-serine at position 4 (Gly4TAG mutant myoglobin, C-terminal His6 tag) (P02185 other isoform, or with tags, fused parts or gaps mutant): as above
Sequence of Vicia Villosa lectin (VVL), biotinylated conjugate (P56625 whole entry): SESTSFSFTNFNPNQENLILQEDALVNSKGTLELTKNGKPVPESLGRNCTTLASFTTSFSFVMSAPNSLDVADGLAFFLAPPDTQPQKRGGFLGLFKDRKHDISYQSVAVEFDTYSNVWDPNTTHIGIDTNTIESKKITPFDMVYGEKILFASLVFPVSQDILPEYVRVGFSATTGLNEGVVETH

Regarding “Dolichos Biflorus lectin (DBL), biotinylated conjugate (from UniProt P05045 23-275)”, the fold signal increase for glycomyoglobin versus tyrosine-myoglobin in assay [1] is 5 fold.

As for “Vicia Villosa lectin (VVL), biotinylated conjugate (from UniProt P56625 1-185)”, the fold signal increase for glycomyoglobin versus tyrosine-myoglobin in assay [1] was found to be 10 fold.

The substance “Bandeiraea simplicifolia II (BSII) lectin, biotinylated” registered a fold signal over wild-type myoglobin in assay [2] of over 200 fold.

Values taken from patent publication US20060110796A1.
